The test addresses GST-SVIP (Drosophila SVIP, CG32039) (Drosophila) (UniProt Q8IQC6). The test can be described thus: pull-down; in vitro binding titration assay of GST-SVIP with MBP-VCP wild type and disease-relevant mutants; binding curves and affinities in Fig. 7b-e.

Chain of GST-SVIP (Drosophila SVIP, CG32039) (Drosophila) (Q8IQC6 entry or part of it): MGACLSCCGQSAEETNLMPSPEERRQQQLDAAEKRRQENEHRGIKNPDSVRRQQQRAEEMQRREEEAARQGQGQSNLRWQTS

Consider “MBP-VCP^P134L (Drosophila VCP) (from UniProt Q7KN62 1-801) (domain or fragment)”, for which the fold reduction of SVIP–VCP affinity against wild type was above 30 fold.

Source of the values: publication PMC7820495.
